Like-named read-outs stand apart in the source and are kept apart here.
Columns and labels:
[1] = target: NP WT (Influenza A virus A/TW/12/2001 (H1N1)) (UniProt Q07FI1); assay: SPR
[2] = target: NP WT (Influenza A virus A/TW/12/2001 (H1N1)) (UniProt Q07FI1); assay: SPR; remark: listed apart in the source

Chain of NP WT (Influenza A virus A/TW/12/2001 (H1N1)) (Q07FI1 whole entry): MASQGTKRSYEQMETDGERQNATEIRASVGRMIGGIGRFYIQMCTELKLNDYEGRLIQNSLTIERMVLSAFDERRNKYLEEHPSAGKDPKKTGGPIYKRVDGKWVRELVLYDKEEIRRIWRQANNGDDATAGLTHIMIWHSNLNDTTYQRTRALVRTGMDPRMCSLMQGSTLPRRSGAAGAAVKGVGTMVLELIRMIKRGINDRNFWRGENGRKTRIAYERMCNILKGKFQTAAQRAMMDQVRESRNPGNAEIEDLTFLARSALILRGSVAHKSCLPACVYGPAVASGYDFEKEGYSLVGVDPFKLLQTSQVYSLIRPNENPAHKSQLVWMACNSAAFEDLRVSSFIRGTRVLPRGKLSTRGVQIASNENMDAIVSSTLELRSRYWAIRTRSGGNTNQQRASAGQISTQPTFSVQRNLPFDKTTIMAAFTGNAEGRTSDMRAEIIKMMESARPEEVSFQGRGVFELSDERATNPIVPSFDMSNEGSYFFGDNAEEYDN

UCCAAACUCCAAACUCCAAACUCCAAAC [(UCCAAAC)4 RNA]
Kd [1]: 10.4 nM | Kd [2]: 8.27 nM

From publication PMC4768256, “Using mutagenesis to explore conserved residues in the RNA-binding groove of influenza A virus nucleoprotein for antiviral drug development” (Scientific Reports, 2016)
